Assay [1] deals with MAGE-A4 peptide … presented by HLA-A*02:01 on cells (human). The assay is described as follows: cell-based or functional assay.
The target of assay [2] is T1, CD3 heterodimer (Acro Biosystems) (UniProt P07766 23-126). The assay is described as follows: SPR (Biacore T200), CD3 heterodimer on HC30M chip; value given for the high affinity CD3 Fab. In general terms: Surface plasmon resonance follows binding to a sensor surface in real time, without labels.
Assay [3] deals with T2, HLA-A*02:01 in complex with the MAGE-A4 peptide … (human).
T2 construct: Recombinant complex as immobilised (500 RU) for SPR; also called HLA-A2/MAGE-A4 complex; pMHC-MAGE-A4 antigen
The assay is described as follows: SPR, HLA-A*02:01/MAGE-A4 complex on streptavidin chip; measured in monovalent format.
Experimental: Affinity characterization of HLA-A2/MAGE-A4×CD3 bispecific antibodies was performed by surface plasmon resonance (SPR). All experiments were conducted using a Biacore™ T200 Device (Cytiva). To determine the kinetic parameters of the binding of the bispecific antibodies to the HLA-A2/MAGE-A4 complex, a streptavidin chip (SAHC30M, XanTec) was coated according to the manufacturer's instructions with 500 RU HLA-A*02:01 in complex with the MAGE-A4 peptide. The resulting affinities presented herein correspond to the measurements performed with the respective monovalent antigen binding proteins. […] Uncoated channels were used for referencing. Data fitting was performed using a 1:1 Langmuir model.

The target of assay [4] is T1, CD3 heterodimer (Acro Biosystems). The assay is described as follows: SPR (Biacore T200), CD3 heterodimer on HC30M chip; value given for the mid affinity CD3 Fab.
The target is the same in assay [5]. The assay is described as follows: SPR (Biacore T200), CD3 heterodimer on HC30M chip; value given for the low affinity CD3 Fab.

T1 sequence (P07766 23-126, one chain of several): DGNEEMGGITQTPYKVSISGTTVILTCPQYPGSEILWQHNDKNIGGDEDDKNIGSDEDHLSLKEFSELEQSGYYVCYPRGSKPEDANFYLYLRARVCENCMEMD

B1: CDR-6 (bispecific antibody)
heavy: EVQLVESGGGSVQPGGSLRLSCAASGFTFSTYAMNWVRQAPGKGLEWVGRIRSKANNYATYYADSVKGRFTISRDDSKNTLYLQMNSLRAEDTATYYCVRHGNFGDSYVSWFAYWGQGTTVTVSSASTKGPSVFPLAPSSKSTSGGTAALGCLVKDYFPEPVTVSWNSGALTSGVHTFPAVLQSSGLYSLSSVVTVPSSSLGTQTYICNVNHKPSNTKVDKRVEPKSCGGGGSEVQLVESGGGLAQAGGSLRVSCVASGRPFTKYAWGWFRQAPGKAREFVATITWDGGKTDYADSVKGRFTISKDSAENSIYLQMNSLKPEDTAVYYCAADRNYCVGHRCYVRPDDYDYWGQGTQVTVSS
light: AVVTQEPSLTVSPGGTVTLTCGSSTGAVTTSNYANWVQQKPGKSPRGLIGGTNKRAPGVPARFSGSLLGGKAALTISGAQPEDEADYYCALWYSNHWVFGGGTKLTVLGTVAAPSVFIFPPSDEQLKSGTASVVCLLNNFYPREAKVQWKVDNALQSGNSQESVTEQDSKDSTYSLSSTLTLSKADYEKHKVYACEVTHQGLSSPVTKSFNRGECGGGGSEVQLVESGGGLAQAGGSLRVSCVASGRPFTKYAWGWFRQAPGKAREFVATITWDGGKTDYADSVKGRFTISKDSAENSIYLQMNSLKPEDTAVYYCAADRNYCVGHRCYVRPDDYDYWGQGTQVTVSS
In the case of B1, the “U20S cell killing, IC50” value in assay [1] was 0.02 nM.

B2: CDR-14 (bispecific antibody)
heavy: EVQLVESGGGLVQPGGSLRLSCAASGFTFSTYAMNWVRQAPGKGLEWVGRIRSKYNNYATYYADSVKGRFTISRDDSKNTLYLQMNSLRAEDTAVYYCVRHGNFGNSYVSWFAYWGQGTLVTVSSASTKGPSVFPLAPSSKSTSGGTAALGCLVKDYFPEPVTVSWNSGALTSGVHTFPAVLQSSGLYSLSSVVTVPSSSLGTQTYICNVNHKPSNTKVDKRVEPKSCGGGGSSYELTQPPSVSVSPGQTASITCTADTLSRSYASWYQQKPGQSPVLVIYRDTSRPSGIPERFSGSNSGNTATLTISGTQAMDEADYYCATSDGSGSNFQLFGGGTKLTVLGGGGGGSGGGGSGGGGSGGGGSESQVLESGGGSVQPGGSLRLSCTVSGFSLSNYAMSWVRQAPGKGLEYIGIVSSGGTTYYASWAKGRFTISKDTSKNTVYLQMNSLRAEDTASYYCAKDLYYGPTTYSAFNLWGQGTSVTVSS
light: QAVVTQEPSLTVSPGGTVTLTCRSSTGAVTTSNYANWVQQKPGQAPRGLIGGTNKRAPGVPARFSGSLLGGKAALTISGAQPEDEADYYCALWYSNHWVFGGGTKLTVLGTVAAPSVFIFPPSDEQLKSGTASVVCLLNNFYPREAKVQWKVDNALQSGNSQESVTEQDSKDSTYSLSSTLTLSKADYEKHKVYACEVTHQGLSSPVTKSFNRGECGGGGSSYELTQPPSVSVSPGQTASITCTADTLSRSYASWYQQKPGQSPVLVIYRDTSRPSGIPERFSGSNSGNTATLTISGTQAMDEADYYCATSDGSGSNFQLFGGGTKLTVLGGGGGGSGGGGSGGGGSGGGGSESQVLESGGGSVQPGGSLRLSCTVSGFSLSNYAMSWVRQAPGKGLEYIGIVSSGGTTYYASWAKGRFTISKDTSKNTVYLQMNSLRAEDTASYYCAKDLYYGPTTYSAFNLWGQGTSVTVSS
notes: no Fc
Regarding B2, in assay [2], the Kd – broadly, the equilibrium constant for the complex coming apart – was found to be 1.2 nM.

B3: CDR-15 (bispecific antibody)
heavy: EVQLVESGGGLVQPGGSLRLSCAASGFTFSTYAMNWVRQAPGKGLEWVGRIRSKYNNYATYYADSVKGRFTISRDDSKNTLYLQMNSLRAEDTAVYYCVRHGNFGDSYVSWFAYWGQGTLVTVSSASTKGPSVFPLAPSSKSTSGGTAALGCLVKDYFPEPVTVSWNSGALTSGVHTFPAVLQSSGLYSLSSVVTVPSSSLGTQTYICNVNHKPSNTKVDKRVEPKSCGGGGSSYELTQPPSVSVSPGQTASITCTADTLSRSYASWYQQKPGQSPVLVIYRDTSRPSGIPERFSGSNSGNTATLTISGTQAMDEADYYCATSDGSGSNFQLFGGGTKLTVLGGGGGGSGGGGSGGGGSGGGGSESQVLESGGGSVQPGGSLRLSCTVSGFSLSNYAMSWVRQAPGKGLEYIGIVSSGGTTYYASWAKGRFTISKDTSKNTVYLQMNSLRAEDTASYYCAKDLYYGPTTQSAFNLWGQGTSVTVSS
light: QAVVTQEPSLTVSPGGTVTLTCGSSTGAVTTSNYANWVQQKPGKSPRGLIGGTNKRAPGVPARFSGSLLGGKAALTISGAQPEDEADYYCALWYSNHWVFGGGTKLTVLGQPKAAPSVTLFPPSSEELQANKATLVCLISDFYPGAVTVAWKADSSPVKAGVETTTPSKQSNNKYAASSYLSLTPEQWKSHRSYSCQVTHEGSTVEKTVAPTECSGGGGSSYELTQPPSVSVSPGQTASITCTADTLSRSYASWYQQKPGQSPVLVIYRDTSRPSGIPERFSGSNSGNTATLTISGTQAMDEADYYCATSDGSGSNFQLFGGGTKLTVLGGGGGGSGGGGSGGGGSGGGGSESQVLESGGGSVQPGGSLRLSCTVSGFSLSNYAMSWVRQAPGKGLEYIGIVSSGGTTYYASWAKGRFTISKDTSKNTVYLQMNSLRAEDTASYYCAKDLYYGPTTQSAFNLWGQGTSVTVSS
B3: the Kd in assay [3] turned out to be 41 nM.

B4: CDR-13 (bispecific antibody)
heavy: EVQLVESGGGLVQPGGSLRLSCAASGFTFSTYAMNWVRQAPGKGLEWVGRIRSKYNNYATYYADSVKGRFTISRDDSKNTLYLQMNSLRAEDTAVYYCVRHGNFGDSYVSWFAYWGQGTLVTVSSASTKGPSVFPLAPSSKSTSGGTAALGCLVKDYFPEPVTVSWNSGALTSGVHTFPAVLQSSGLYSLSSVVTVPSSSLGTQTYICNVNHKPSNTKVDKRVEPKSCGGGGSSYELTQPPSVSVSPGQTASITCTADTLSRSYASWYQQKPGQSPVLVIYRDTSRPSGIPERFSGSNSGNTATLTISGTQAMDEADYYCATSDGSGSNFQLFGGGTKLTVLGGGGGGSGGGGSGGGGSGGGGSESQVLESGGGSVQPGGSLRLSCTVSGFSLSNYAMSWVRQAPGKGLEYIGIVSSGGTTYYASWAKGRFTISKDTSKNTVYLQMNSLRAEDTASYYCAKDLYYGPTTYSAFNLWGQGTSVTVSS
light: QAVVTQEPSLTVSPGGTVTLTCGSSTGAVTTSNYANWVQQKPGKSPRGLIGGTNKRAPGVPARFSGSLLGGKAALTISGAQPEDEADYYCALWYSNHWVFGGGTKLTVLGTVAAPSVFIFPPSDEQLKSGTASVVCLLNNFYPREAKVQWKVDNALQSGNSQESVTEQDSKDSTYSLSSTLTLSKADYEKHKVYACEVTHQGLSSPVTKSFNRGECGGGGSSYELTQPPSVSVSPGQTASITCTADTLSRSYASWYQQKPGQSPVLVIYRDTSRPSGIPERFSGSNSGNTATLTISGTQAMDEADYYCATSDGSGSNFQLFGGGTKLTVLGGGGGGSGGGGSGGGGSGGGGSESQVLESGGGSVQPGGSLRLSCTVSGFSLSNYAMSWVRQAPGKGLEYIGIVSSGGTTYYASWAKGRFTISKDTSKNTVYLQMNSLRAEDTASYYCAKDLYYGPTTYSAFNLWGQGTSVTVSS
notes: no Fc
For the molecule B4, in assay [4], the affinity, expressed as Kd, was 11 nM.

B5: CDR-12 (bispecific antibody)
heavy: EVQLVESGGGLVQPGGSLRLSCAASGFTFSTYAMNWVRQAPGKGLEWVGRIRSKANNYATYYADSVKGRFTISRDDSKNTLYLQMNSLRAEDTAVYYCVRHGNFGDSYVSWFAYWGQGTLVTVSSASTKGPSVFPLAPSSKSTSGGTAALGCLVKDYFPEPVTVSWNSGALTSGVHTFPAVLQSSGLYSLSSVVTVPSSSLGTQTYICNVNHKPSNTKVDKRVEPKSCGGGGSSYELTQPPSVSVSPGQTASITCTADTLSRSYASWYQQKPGQSPVLVIYRDTSRPSGIPERFSGSNSGNTATLTISGTQAMDEADYYCATSDGSGSNFQLFGGGTKLTVLGGGGGGSGGGGSGGGGSGGGGSESQVLESGGGSVQPGGSLRLSCTVSGFSLSNYAMSWVRQAPGKGLEYIGIVSSGGTTYYASWAKGRFTISKDTSKNTVYLQMNSLRAEDTASYYCAKDLYYGPTTYSAFNLWGQGTSVTVSS
light: QAVVTQEPSLTVSPGGTVTLTCGSSTGAVTTSNYANWVQQKPGKSPRGLIGGTNKRAPGVPARFSGSLLGGKAALTISGAQPEDEADYYCALWYSNHWVFGGGTKLTVLGTVAAPSVFIFPPSDEQLKSGTASVVCLLNNFYPREAKVQWKVDNALQSGNSQESVTEQDSKDSTYSLSSTLTLSKADYEKHKVYACEVTHQGLSSPVTKSFNRGECGGGGSSYELTQPPSVSVSPGQTASITCTADTLSRSYASWYQQKPGQSPVLVIYRDTSRPSGIPERFSGSNSGNTATLTISGTQAMDEADYYCATSDGSGSNFQLFGGGTKLTVLGGGGGGSGGGGSGGGGSGGGGSESQVLESGGGSVQPGGSLRLSCTVSGFSLSNYAMSWVRQAPGKGLEYIGIVSSGGTTYYASWAKGRFTISKDTSKNTVYLQMNSLRAEDTASYYCAKDLYYGPTTYSAFNLWGQGTSVTVSS
notes: no Fc
The molecule B5 came in with an equilibrium dissociation constant (Kd) in assay [5] of 54 nM.

B6: CDR-8 (bispecific antibody)
heavy: EVQLVESGGGLVQPGGSLRLSCAASGFTFSTYAMNWVRQAPGKGLEWVGRIRSKYNNYATYYADSVKGRFTISRDDSKNTLYLQMNSLRAEDTAVYYCVRHGNFGDSYVSWFAYWGQGTLVTVSSASTKGPSVFPLAPSSKSTSGGTAALGCLVKDYFPEPVTVSWNSGALTSGVHTFPAVLQSSGLYSLSSVVTVPSSSLGTQTYICNVNHKPSNTKVDKRVEPKSCGGGGSSYELTQPPSVSVSPGQTASITCTADTLSRSYASWYQQKPGQSPVLVIYRDTSRPSGIPERFSGSNSGNTATLTISGTQAMDEADYYCATRPSSGSNFQLFGGGTKLTVLGGGGGGSGGGGSGGGGSGGGGSESQVLESGGGSVQPGGSLRLSCTVSGFSLSNYAMSWVRQAPGKGLEYIGIVSSGGTTYYASWAKGRFTISKDTSKNTVYLQMNSLRAEDTASYYCAKDLYYGPTTYSAFNLWGQGTSVTVSS
light: QAVVTQEPSLTVSPGGTVTLTCGSSTGAVTTSNYANWVQQKPGKSPRGLIGGTNKRAPGVPARFSGSLLGGKAALTISGAQPEDEADYYCALWYSNHWVFGGGTKLTVLGQPKAAPSVTLFPPSSEELQANKATLVCLISDFYPGAVTVAWKADSSPVKAGVETTTPSKQSNNKYAASSYLSLTPEQWKSHRSYSCQVTHEGSTVEKTVAPTECSGGGGSSYELTQPPSVSVSPGQTASITCTADTLSRSYASWYQQKPGQSPVLVIYRDTSRPSGIPERFSGSNSGNTATLTISGTQAMDEADYYCATRPSSGSNFQLFGGGTKLTVLGGGGGGSGGGGSGGGGSGGGGSESQVLESGGGSVQPGGSLRLSCTVSGFSLSNYAMSWVRQAPGKGLEYIGIVSSGGTTYYASWAKGRFTISKDTSKNTVYLQMNSLRAEDTASYYCAKDLYYGPTTYSAFNLWGQGTSVTVSS
notes: no Fc; also called dual pMHC TCE; dual pMHC-targeting T cell engager in Fab-(scFv)2 format
Turning to B6, in assay [3], the Kd turned out to be 0.1 nM.
